Measurements published in patent publication US10000771B2, “Nuclear targeting sequences” (Yeda Research and Development Co. Ltd., priority 2007, dated 2018).

Assays:
SPS domain = assay: SPS phosphorylation detected by anti pSPS Ab Western blot; assay type: cell-based; conditions: COS7 cells, stimulated with VOOH, TPA, EGF or TGFβ, immunoprecipitation and Western blot
Method: FIGS. 4A-4I are autoradiographs characterizing SPS phosphorylation using an Ab to the phosphorylated SPS domain. FIG. 4A illustrates an elevation of pSPS detection upon stimulation. COS cells were transfected with WT-GFP-ERK2. Twenty-four hr after transfection, the cells were serum-starved for 16 hr and subsequently treated with the general stimulator VOOH (V, 100 μM Na3VO4 and 200 μM H2O2, 15 min), TPA (T, 250 nM, 15 min), EGF (E, 50 ng/ml for 15 min), or left untreated (NT). The GFP-ERK2 was immunoprecipitated with anti GFP Ab, extensively washed, and the IP was then subjected to Western blotting with anti phospho SPS-ERK (αphoSPS-ERK) and anti general ERK (αgen-ERK) Abs. FIG. 4B is a time course of SPS phosphorylation. COS7 cells overexpressing WT-GFP-ERK2 were serum starved followed by EGF stimulation for the indicated time points. The lysates were then subjected to Western blot analysis as in FIG. 4A. […] SPS phosphorylation was detected using the anti pSPS Abs, and this was compared to the amount of genral ERKs detected by αgERK. […] SPS-phosphorylation was detected using αpSPS and αgERK Abs. […] The phosphorylation (^32P-ERK2) of ERK and its mutants was detected by autoradiography. […]
FIG. 9B is an autoradiograph illustrating that stimulation elevates pSPS phosphorylation of 2GFP-SPS construct. […] The total amount of immunoprecipitated 2GFP-SPS was detected with αGFP Ab. […]

CHO cells = assay: Microscopy of SMAD3 and MH2 constructs (subcellular localization); assay type: cell-based; conditions: overexpressed in CHO cells, fluorescence microscopy
Description: FIGS. 11A-11D are photomicrographs illustrating that mutation of SPS prevents the nuclear translocation of full length SMAD3. CHO cells overexpressing either Flag-SMAD3 (SMAD3) or its AAA mutant (AAA-SMAD3) were fixed and stained both with anti Flag Ab and DAPI.
FIGS. 12A-12F are photomicrographs illustrating that mutants of the SPS domain modulate the subcellular translocation of the MH2 region of SMAD3. CHO cells overexpressing MH2 domain of SMAD3 (WT-MH2), or the AAA (AAA-MH2) and DPD mutant (MH2-DPD) were fixed and visualized under florescent microscope.
Immunofluorescence Microscopy. Cells were fixed (30 min in 3% paraformaldehyde in PBS or 10 min with ice-cold methanol), followed by 5-min permeabilization with 0.2% Triton X-100 in PBS (23° C.). The fixed cells were sequentially incubated with the appropriate Abs (45 min) followed by rhodamine-conjugated secondary Abs (45 min) and DAPI. Slides were visualized using a fluorescence microscope (Nikon, Japan) at 400× magnifications.
Therefore, it seems likely that the SPS of SMAD3 operated similarly to that of ERK2. To examine whether this SPS of SMAD3 is involved in nuclear translocation WT-Flag-SMAD3 and a Flag-SMAD3 in which the SPS domain was replaced with three Ala residues (AAA-SMAD3) were overexpressed in CHO cells and their localization examined.

B1: WT-Flag-SMAD3: full length FLAG-SMAD3 (protein)
chain: MSSILPFTPPIVKRLLGWKKGEQNGQEEKWCEKAVKSLVKKLKKTGQLDELEKAITTQNVNTKCITIPRSLDGRLQVSHRKGLPHVIYCRLWRWPDLHSHHELRAMELCEFAFNMKKDEVCVNPYHYQRVETPVLPPVLVPRHTEIPAEFPPLDDYSHSIPENTNFPAGIEPQSNIPETPPPGYLSEDGETSDHQMNHSMDAGSPNLSPNPMSPAHNNLDLQPVTYCEPAFWCSISYYELNQRVGETFHASQPSMTVDGFTDPSNSERFCLGLLSNVNRNAAVELTRRHIGRGVRLYYIGGEVFAECLSDSAIFVQSPNCNQRYGWHPATVCKIPPGCNLKIFNNQEFAALLAQSVNQGFEAVYQLTRMCTIRMSFVKGWGAEYRRQTVTSTPCWIELHLNGPLQWLDKVLTQMGSPSIRCSSVS
modifications: left off: small tags and cut ends
SPS phosphorylation upon stimulation (anti pSPS Ab recognition) (SPS domain): phosphorylated on its SPS domain
subcellular localization (CHO cells): nuclear localization
